Measured values taken from patent US20200140517A1 (CASE WESTERN RESERVE UNIVERSITY, published 2020).
Values joined by “and” are separate entries in the source; they are usually repeats but may differ in a detail not shown here. Equal values may be shown once. Positions of bridges follow the written chain, without caps; N, C: chain ends. No end group written: not given here.

Legend:
[1] = target: T1, A isoform of the insulin receptor (UniProt P06213-2 28-1370, limits assumed); experiment: receptor binding affinity, method not described; reference: human insulin; data not shown
T1 construct: also called IR-A

[2] = substrate: B isoform of the insulin receptor (UniProt P06213); experiment: receptor binding affinity, method not described; reference: wild type human insulin

affinity relative to human insulin [1]: 120 percent
fold reduction of affinity relative to wild type human insulin [2]: 5 fold and 10 fold
B1: 4SS 81-04 (SCI-2; 57-mer single-chain insulin analogue with fourth disulfide bridge, cystine B4-A10) (ligand)
chain: FVNCHLCGSHLVEALYLVCGERGFFYTDPTEEGPRRGIVEQCCHSCCSLEQLENYCN
modifications: disulfide 4-46; also: three canonical disulfides, pairing not given here
notes: Single polypeptide chain (B domain, 6-residue C domain EEGPRR, A domain), expressed in Pichia pastoris; Cys at B4 and A10 form a fourth disulfide bridge beside the three canonical ones; also called 57mer SCI-2
